Experimental data taken from patent EP1758924B1 (Council of Scientific and Industrial Research, dated 2005).

Assays:
[1] = molecular target: T1, bovine serum albumin (BSA) (bovine, UniProt P02769 25-607); assay: reverse phage ELISA, A405
T1 construct: Negative control target in the reverse phage ELISA

[2] = molecular target: T2, Hsp16.3 (16 kDa alpha-crystallin like heat-shock protein of Mycobacterium tuberculosis), recombinant, 6 X His … (Mycobacterium tuberculosis); assay: reverse phage ELISA on coated Hsp16.3, anti-M13-HRP, A405
T2 construct: also called M. tuberculosis Acr (Hsp16.3) protein

T1 sequence (P02769 25-607 limits assumed): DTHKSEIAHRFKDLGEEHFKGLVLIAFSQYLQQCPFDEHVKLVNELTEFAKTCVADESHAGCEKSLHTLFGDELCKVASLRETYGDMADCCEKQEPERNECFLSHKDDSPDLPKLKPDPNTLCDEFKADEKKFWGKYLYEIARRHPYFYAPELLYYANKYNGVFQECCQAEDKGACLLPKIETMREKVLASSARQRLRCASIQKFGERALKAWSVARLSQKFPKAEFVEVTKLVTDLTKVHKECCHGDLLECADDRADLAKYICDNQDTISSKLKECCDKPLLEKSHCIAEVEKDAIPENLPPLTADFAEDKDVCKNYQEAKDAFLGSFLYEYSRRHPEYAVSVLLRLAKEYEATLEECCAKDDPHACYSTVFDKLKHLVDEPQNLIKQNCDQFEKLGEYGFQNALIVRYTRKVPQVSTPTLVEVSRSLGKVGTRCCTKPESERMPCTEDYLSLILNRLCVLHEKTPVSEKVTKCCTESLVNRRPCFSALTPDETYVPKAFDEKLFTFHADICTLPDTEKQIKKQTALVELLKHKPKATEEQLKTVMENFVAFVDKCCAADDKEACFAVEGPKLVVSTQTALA

B1: phage clone displaying peptide sequence Seq ID 9 (Lys-Met-His-Ala-Thr-Asn-His), from the Ph.D.-7 library on bacteriophage M13 (peptide)
peptide: KMHATNH
notes: Tested as whole phage in the reverse phage ELISA; not shown: fused to an M13 coat protein (spacer Gly-Gly-Gly-Ser is named)
For B1, the binding result [1] was “no binding” and the “fold binding over BSA background” value [2] was roughly 3 fold.

B2: phage clone displaying peptide sequence Seq ID 21 (Tyr-Pro-His-His-Phe-Lys-His-Arg-His-Ile-Pro-Ile), from the Ph.D.-12 library on bacteriophage M13 (peptide)
peptide: YPHHFKHRHIPI
notes: as for B1
B2: no binding [1].
